The labels stand for the following.
T1: Human NKp30 (BKM0179) (human, UniProt O14931 19-135, limits assumed)
T1 sequence (looked up): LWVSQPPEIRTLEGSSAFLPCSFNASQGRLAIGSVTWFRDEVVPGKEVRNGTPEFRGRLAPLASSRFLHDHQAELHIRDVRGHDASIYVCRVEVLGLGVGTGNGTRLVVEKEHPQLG

B1: BKM0138 (antibody, V domains shown)
VH: EIQLLESGGGLVQPGGSLRLSCAVSGFSITTTGYHWNWVRQAPGKGLEWVGYIYSSGSTSYNPSLKSRFTISRDTSKNTFYLQMNSLRAEDTAVYYCARGDWHYFDYWGQGTMVTVSS
VL: DSVTTQSPLSLPVTLGQPASISCSGEKLSDKYVHWYQQRPGQSPRMLIYENDRRPSGVPDRFSGSNSGNDATLKISRVEAEDVGVYFCQFWDSTASAVFGGGTKVEIK
notes: also called BJM0411 VL-N95A
B2: BKM0145 (antibody, V domains shown)
VH: EIQLLESGGGLVQPGGSLRLSCAVSGFSITTTGYHWNWVRQAPGKGLEWVGYIYSSGSTSYAPSLKSRFTISRDTSKNTFYLQMNSLRAEDTAVYYCARGDWHYFDYWGQGTMVTVSS
VL: SSETTQPPSVSVSPGQTASITCSGEKLSDKYVHWYQQKPGQSPVMVIYENDRRPSGIPERFSGSNSGNTATLTISGTQAMDEADYFCQFWASTASAVFGGGTQLTVL
notes: also called BJM0407 VH-N60A-VL-D92A-N95A
B3: BKM0141 (antibody, V domains shown)
VH: EIQLLESGGGLVQPGGSLRLSCAVSGFSITTTGYHWNWVRQAPGKGLEWVGYIYSSGSTSYNPSLKSRFTISRDTSKNTFYLQMNSLRAEDTAVYYCARGDWHYFDYWGQGTMVTVSS
VL: SSETTQPPSVSVSPGQTASITCSGEKLSDKYVHWYQQKPGQSPVMVIYENDRRPSGIPERFSGSNSGNTATLTISGTQAMDEADYFCQFWDSTASAVFGGGTQLTVL
notes: also called BJM0407 VL-N95A
B4: BKM0144 (antibody, V domains shown)
VH: EIQLLESGGGLVQPGGSLRLSCAVSGFSITTTGYHWNWVRQAPGKGLEWVGYIYSSGSTSYAPSLKSRFTISRDTSKNTFYLQMNSLRAEDTAVYYCARGDWHYFDYWGQGTMVTVSS
VL: DSVTTQSPLSLPVTLGQPASISCSGEKLSDKYVHWYQQRPGQSPRMLIYENDRRPSGVPDRFSGSNSGNDATLKISRVEAEDVGVYFCQFWASTASAVFGGGTKVEIK
notes: also called BJM0411 VH-N60A-VL-D92A-N95A
B5: BKM0142 (antibody, V domains shown)
VH: EIQLLESGGGLVQPGGSLRLSCAVSGFSITTTGYHWNWVRQAPGKGLEWVGYIYSSGSTSYAPSLKSRFTISRDTSKNTFYLQMNSLRAEDTAVYYCARGDWHYFDYWGQGTMVTVSS
VL: DSVTTQSPLSLPVTLGQPASISCSGEKLSDKYVHWYQQRPGQSPRMLIYENDRRPSGVPDRFSGSNSGNDATLKISRVEAEDVGVYFCQFWDSTNSAVFGGGTKVEIK
notes: also called BJM0411 VH-N60A
B6: BKM0143 (antibody, V domains shown)
VH: EIQLLESGGGLVQPGGSLRLSCAVSGFSITTTGYHWNWVRQAPGKGLEWVGYIYSSGSTSYAPSLKSRFTISRDTSKNTFYLQMNSLRAEDTAVYYCARGDWHYFDYWGQGTMVTVSS
VL: SSETTQPPSVSVSPGQTASITCSGEKLSDKYVHWYQQKPGQSPVMVIYENDRRPSGIPERFSGSNSGNTATLTISGTQAMDEADYFCQFWDSTNSAVFGGGTQLTVL
notes: also called BJM0407 VH-N60A
B7: BKM0139 (antibody, V domains shown)
VH: EIQLLESGGGLVQPGGSLRLSCAVSGFSITTTGYHWNWVRQAPGKGLEWVGYIYSSGSTSYNPSLKSRFTISRDTSKNTFYLQMNSLRAEDTAVYYCARGDWHYFDYWGQGTMVTVSS
VL: DSVTTQSPLSLPVTLGQPASISCSGEKLSDKYVHWYQQRPGQSPRMLIYENDRRPSGVPDRFSGSNSGNDATLKISRVEAEDVGVYFCQFWASTNSAVFGGGTKVEIK
notes: also called BJM0411 VL-D92A
B8: BKM0140 (antibody, V domains shown)
VH: EIQLLESGGGLVQPGGSLRLSCAVSGFSITTTGYHWNWVRQAPGKGLEWVGYIYSSGSTSYNPSLKSRFTISRDTSKNTFYLQMNSLRAEDTAVYYCARGDWHYFDYWGQGTMVTVSS
VL: SSETTQPPSVSVSPGQTASITCSGEKLSDKYVHWYQQKPGQSPVMVIYENDRRPSGIPERFSGSNSGNTATLTISGTQAMDEADYFCQFWASTNSAVFGGGTQLTVL
notes: also called BJM0407 VL-D92A

This assay concerns the target T1, Human NKp30 (BKM0179). Description: SPR (BIAcore T200); human NKp30 BKM0179 captured on a CM5 chip via anti-mouse Fc, antibody construct injected at 3.9-125 nM; 1:1 model.
Method: In this example, a series of exemplary anti-NKp30 antibody molecules were analyzed for their binding affinity for NKp30. Briefly, surface plasmon resonance (SPR) measurements were performed by using the BIAcore T200. Human NKp30 (BKM0179) was immobilized on a CM5 chip via anti-mouse Fc antibody to a response of 50 RU. […] The data was fit using a 1:1 binding model.
For orientation: Kd means the equilibrium constant for the complex coming apart. With B1, binding was characterised by a dissociation constant (Kd) of 3.2 nM.
In turn, B2 yielded a Kd of 4.2 nM.
Molecule B3 registered a Kd of 3 nM.
Molecule B4 yielded a Kd of 6.4 nM.
In the case of B5, the Kd worked out at 1.28 nM. This Kd is about 5-fold lower than that of the molecule before.
Turning to B6, the Kd turned out to be 1.45 nM.
B7 gave a Kd of 3.2 nM.
Take B8: binding was characterised by a dissociation constant (Kd) of 3.3 nM.

The values are drawn from US20230333112A1 (MARENGO THERAPEUTICS, published 2023).
